In publication PMC4392985:

Molecular target: LlaKI restriction endonuclease (Lactococcus lactis KLDS4 (endogenous))
Test: SEC; Sephadex G-200 10/30 column, buffer B-100 (10 mM Tris-HCl pH 7.5, 1 mM EDTA, 10 mM 2-Mercaptoethanol, 100 mM NaCl), 0.5 mL/min; calibrated with protein standards; LlaKI found by assay of cleavage activity of the fractions; native about 112 kDa against 50 kDa denatured

stoichiometry N: 2
Substance: LlaKI restriction endonuclease (enzyme)
